Reference: paper PMC12162048 (Blood Vessels, Thrombosis & Hemostasis, 2024)

T1: protein S, purified, P07225
T1 chain: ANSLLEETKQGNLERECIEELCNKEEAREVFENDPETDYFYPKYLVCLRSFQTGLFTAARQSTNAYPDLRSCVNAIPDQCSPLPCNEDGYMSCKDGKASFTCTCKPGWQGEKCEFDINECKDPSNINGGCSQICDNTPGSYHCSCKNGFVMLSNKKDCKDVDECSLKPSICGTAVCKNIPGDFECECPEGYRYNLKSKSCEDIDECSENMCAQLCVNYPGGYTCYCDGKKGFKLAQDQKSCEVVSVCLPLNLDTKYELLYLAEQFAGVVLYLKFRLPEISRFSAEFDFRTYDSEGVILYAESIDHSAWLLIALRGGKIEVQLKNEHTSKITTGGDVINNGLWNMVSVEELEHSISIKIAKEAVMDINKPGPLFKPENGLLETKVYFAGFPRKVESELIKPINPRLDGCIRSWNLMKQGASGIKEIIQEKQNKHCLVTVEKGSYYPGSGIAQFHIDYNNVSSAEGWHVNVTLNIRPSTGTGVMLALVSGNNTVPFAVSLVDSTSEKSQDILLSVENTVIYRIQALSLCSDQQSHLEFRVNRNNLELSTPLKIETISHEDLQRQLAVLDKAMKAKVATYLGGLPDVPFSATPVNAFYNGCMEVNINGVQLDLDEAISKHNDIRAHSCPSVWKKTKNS


Key:
[1] = biological target: T1, protein S, purified, P07225; experiment: native gel or EMSA; conditions: remark: other sources report otherwise
[2] = biological target: von Willebrand factor of plasma (human (endogenous in plasma), UniProt P04275 764-2813); experiment: ELISA

Binder | stoichiometry N [1] | fold change of the apparent interaction with MerTK against without MerTK [2]
protein S, purified, P07225 42-676 (natural protein) ANSLLEETKQGNLERECIEELCNKEEAREVFENDPETDYFYPKYLVCLRSFQTGLFTAARQSTNAYPDLRSCVNAIPDQCSPLPCNEDGYMSCKDGKASFTCTCKPGWQGEKCEFDINECKDPSNINGGCSQICDNTPGSYHCSCKNGFVMLSNKKDCKDVDECSLKPSICGTAVCKNIPGDFECECPEGYRYNLKSKSCEDIDECSENMCAQLCVNYPGGYTCYCDGKKGFKLAQDQKSCEVVSVCLPLNLDTKYELLYLAEQFAGVVLYLKFRLPEISRFSAEFDFRTYDSEGVILYAESIDHSAWLLIALRGGKIEVQLKNEHTSKITTGGDVINNGLWNMVSVEELEHSISIKIAKEAVMDINKPGPLFKPENGLLETKVYFAGFPRKVESELIKPINPRLDGCIRSWNLMKQGASGIKEIIQEKQNKHCLVTVEKGSYYPGSGIAQFHIDYNNVSSAEGWHVNVTLNIRPSTGTGVMLALVSGNNTVPFAVSLVDSTSEKSQDILLSVENTVIYRIQALSLCSDQQSHLEFRVNRNNLELSTPLKIETISHEDLQRQLAVLDKAMKAKVATYLGGLPDVPFSATPVNAFYNGCMEVNINGVQLDLDEAISKHNDIRAHSCPSVWKKTKNS | 2 | 
biotinylated protein S (natural protein, biotin (biotinylated, sites not stated)) ANSLLEETKQGNLERECIEELCNKEEAREVFENDPETDYFYPKYLVCLRSFQTGLFTAARQSTNAYPDLRSCVNAIPDQCSPLPCNEDGYMSCKDGKASFTCTCKPGWQGEKCEFDINECKDPSNINGGCSQICDNTPGSYHCSCKNGFVMLSNKKDCKDVDECSLKPSICGTAVCKNIPGDFECECPEGYRYNLKSKSCEDIDECSENMCAQLCVNYPGGYTCYCDGKKGFKLAQDQKSCEVVSVCLPLNLDTKYELLYLAEQFAGVVLYLKFRLPEISRFSAEFDFRTYDSEGVILYAESIDHSAWLLIALRGGKIEVQLKNEHTSKITTGGDVINNGLWNMVSVEELEHSISIKIAKEAVMDINKPGPLFKPENGLLETKVYFAGFPRKVESELIKPINPRLDGCIRSWNLMKQGASGIKEIIQEKQNKHCLVTVEKGSYYPGSGIAQFHIDYNNVSSAEGWHVNVTLNIRPSTGTGVMLALVSGNNTVPFAVSLVDSTSEKSQDILLSVENTVIYRIQALSLCSDQQSHLEFRVNRNNLELSTPLKIETISHEDLQRQLAVLDKAMKAKVATYLGGLPDVPFSATPVNAFYNGCMEVNINGVQLDLDEAISKHNDIRAHSCPSVWKKTKNS |  | ~2 fold
